For 15 sequences, Kd results are on record in the Immune Epitope Database (IEDB).

One assay addresses HLA-A*02:01. Nature of the assay: IEDB peptide-MHC binding, purified MHC/direct/fluorescence; filed as Kd, often an IC50 or EC50 that approximates it; ≥ and ≤ were set here for values at or beyond the usual limits of such assays.
The target of another assay is HLA-B*58:01. Described as above.
Assay [1] has as its target HLA-A*11:01. The description is as above.
In assay [2] the target is HLA-B*46:01. The assay is described as above.
Assay [3] deals with HLA-B*57:01. Described as above.
The next assay concerns the target HLA-B*40:01. The description is as above.
The next assay has as its target HLA-B*48:01. The assay is described as above.
The next assay concerns the target HLA-A*01:01. The description is as above.
The target in assay [4] is HLA-A*31:01. The assay is described as above.
The target in another assay is HLA-B*15:01. The assay is described as above.
The next assay has as its target HLA-B*27:05. The description is as above.
The next assay concerns the target HLA-B*15:17. The assay is described as above.
The target in assay [5] is HLA-A*03:01. The assay is described as above.
The target in a further assay is HLA-A*02:16. Described as above. As to conditions: source organism: Listeria monocytogenes serotype 4b str. H7858.
Assay [6] has as its target HLA-A*69:01. The assay is described as above.
Another assay deals with HLA-A*02:12. Described as above. As to conditions: source organism: Listeria monocytogenes serotype 4b str. H7858.
Assay [7] has as its target HLA-B*51:01. The assay is described as above.
In another assay the target is HLA-B*07:02. The description is as above.
For the next assay, the target named is HLA-B*27:03. Nature of the assay: IEDB peptide-MHC binding, purified MHC/competitive/fluorescence; filed as Kd, often an IC50 or EC50 that approximates it; ≥ and ≤ were set here for values at or beyond the usual limits of such assays. As to conditions: source organism: Homo sapiens.
Assay [8] addresses HLA-A*26:01. The description is as above. As to conditions: source organism: Homo sapiens.
The target in another assay is HLA-B*18:01. Described as above. Conditions: source organism: Homo sapiens.
The target in assay [9] is HLA-A*69:01. The description is as above. Conditions: source organism: Homo sapiens.
The target in assay [10] is HLA-B*51:01. The description is as above. Conditions: source organism: Homo sapiens.
For assay [11], the target named is HLA-B*46:01. The description is as above. Conditions: source organism: Homo sapiens.
Assay [12] addresses HLA-B*57:01. The description is as above. As to conditions: source organism: Homo sapiens.
In the next assay the target is HLA-B*44:02. Kind of assay: IEDB peptide-MHC binding, purified MHC/direct/fluorescence; filed as Kd, often an IC50 or EC50 that approximates it; ≥ and ≤ were set here for values at or beyond the usual limits of such assays.
For assay [13], the target named is HLA-A*26:01. The description is as above. As to conditions: source organism: Vibrio cholerae.
In a further assay the target is HLA-A*24:03. The assay is described as above. As to conditions: source organism: Vibrio cholerae.
The next assay deals with HLA-B*08:01. The assay is described as above.
Another assay addresses HLA-A*68:01. Kind of assay: IEDB peptide-MHC binding, purified MHC/competitive/radioactivity; filed as Kd, often an IC50 or EC50 that approximates it; ≥ and ≤ were set here for values at or beyond the usual limits of such assays. Conditions: source organism: Vaccinia virus WR.
A further assay has as its target HLA-A*33:01. The description is as above. As to conditions: source organism: Vaccinia virus WR.
The target in assay [14] is HLA-A*11:01. The assay is described as above. As to conditions: source organism: Vaccinia virus WR.
For assay [15], the target named is HLA-A*31:01. The description is as above. As to conditions: source organism: Vaccinia virus WR.
The target in assay [16] is HLA-A*03:01. The description is as above. Conditions: source organism: Vaccinia virus WR.
The next assay concerns the target HLA-A*02:06. The description is as above. As to conditions: source organism: Dengue virus 2 Jamaica/1409/1983.
[17] abbreviates: source organism: Giardia lamblia ATCC 50803.
[18] abbreviates: source organism: Listeria monocytogenes.
Setting [19] is: source organism: Orthohantavirus dobravaense.
The mark [20] stands for this setting: source organism: Vibrio cholerae.
[21] abbreviates: source organism: Camelpox virus M-96.
Where [22] appears, read: source organism: Bacillus cytotoxicus.
Where [23] appears, read: source organism: Mammarenavirus lassaense.
The mark [24] stands for this setting: source organism: Mammarenavirus juninense.

One may read the Kd as the constant that tells how readily two partners part at equilibrium.

In the case of DSPATLSAY, the Kd with HLA-A*02:01 (setting [17]), with HLA-B*58:01 (setting [17]), in the assay with HLA-A*11:01 [1] (setting [17]), in the assay with HLA-B*46:01 [2] (setting [17]), with HLA-B*57:01 [3] (setting [17]) and with HLA-B*40:01 (setting [17]) was no less than 20 µM throughout. Besides, the Kd with HLA-B*48:01 (setting [17]) was no less than 20 µM; with HLA-A*01:01 (setting [17]), no less than 20 µM; with HLA-A*31:01 [4] (setting [17]), no less than 20 µM; in the assay with HLA-B*15:01 (setting [17]), no less than 20 µM; with HLA-B*27:05 (setting [17]) it was no less than 20 µM; with HLA-B*15:17 (setting [17]), 5.53 µM. This sequence also displayed a Kd in the assay with HLA-A*03:01 [5] (setting [17]) of no less than 20 µM.

For the sequence SQDEVLFLV, the Kd is no more than 0.001 µM with HLA-A*02:16, 0.0045 µM with HLA-A*02:01 (setting [18]), 0.0353 µM in the assay with HLA-A*69:01 [6] (setting [18]) and 0.004 µM in the assay with HLA-A*02:12.

With MAMLADYFY, the Kd in the assay with HLA-B*51:01 [7] (setting [18]) is no less than 20 µM; with HLA-B*07:02 (setting [18]), no less than 20 µM; with HLA-B*15:01 (source organism: Listeria monocytogenes serotype 4b str. H7858), 0.012 µM.

With SRLLMRRMR, in the assay with HLA-B*48:01 (source organism: Yellow fever virus), the Kd was no less than 20 µM.

Turning to QTSSIEGAW, the Kd with HLA-B*58:01 (setting [19]) is no less than 20 µM; in the assay with HLA-B*57:01 [3] (setting [19]) it was no less than 20 µM; in the assay with HLA-B*15:17 (setting [19]) it was 5.78 µM.

Turning to KQMEDGHTL, the Kd was 0.0048 µM with HLA-A*02:01 (source organism: Rattus norvegicus); no less than 20 µM with HLA-B*27:03; no less than 20 µM with HLA-A*26:01 [8]; no less than 20 µM with HLA-B*18:01; no less than 20 µM in the assay with HLA-A*69:01 [9]; no less than 20 µM with HLA-B*51:01 [10]. Further, the Kd in the assay with HLA-B*46:01 [11] and in the assay with HLA-B*57:01 [12] was no less than 20 µM throughout.

In the assay with HLA-B*48:01 (source organism: Bacillus thuringiensis), KQIAEHATI registered a Kd of 0.351 µM.

On to DSDPMDGCE, for which the Kd with HLA-B*44:02 (setting [20]), with HLA-A*02:01 (setting [20]), in the assay with HLA-A*26:01 [13], in the assay with HLA-A*69:01 [6] (setting [20]), with HLA-B*58:01 (setting [20]) and in the assay with HLA-A*11:01 [1] (setting [20]) was no less than 20 µM each time. Also, the dissociation constant Kd with HLA-B*40:01 (setting [20]), in the assay with HLA-B*07:02 (setting [20]), with HLA-A*01:01 (setting [20]), in the assay with HLA-A*24:03, with HLA-A*31:01 [4] (setting [20]) and in the assay with HLA-B*15:01 (setting [20]) was no less than 20 µM throughout. Besides, the Kd with HLA-B*08:01 (setting [20]), with HLA-B*27:05 (setting [20]) and in the assay with HLA-A*03:01 [5] (setting [20]) was no less than 20 µM throughout.

With KSTSPTRTW, the results for the Kd with HLA-B*58:01 (setting [21]), with HLA-B*57:01 [3] (setting [21]) and with HLA-B*15:17 (setting [21]) were 0.035 µM, 0.0707 µM and 0.0024 µM, respectively.

In the case of KTMMQAHDL, the Kd in the assay with HLA-B*58:01 (setting [22]) worked out at 0.0759 µM; with HLA-B*57:01 [3] (source organism: Bacillus cereus AH1134) it was 0.12 µM; with HLA-B*15:17 (setting [22]), 0.226 µM.

As for CGRSCTSSL, the Kd with HLA-B*51:01 [7] (setting [23]) was no less than 20 µM; with HLA-B*07:02 (setting [23]), 0.558 µM.

As for YAKKFKTGM, the Kd with HLA-B*44:02 (setting [24]), with HLA-A*02:01 (setting [24]), with HLA-B*58:01 (setting [24]), with HLA-A*11:01 [1] (setting [24]), with HLA-B*46:01 [2] (setting [24]) and in the assay with HLA-B*57:01 [3] (setting [24]) was no less than 20 µM each time. For the same sequence, the Kd is no less than 20 µM in the assay with HLA-B*40:01 (setting [24]); no less than 20 µM with HLA-B*07:02 (setting [24]); no less than 20 µM in the assay with HLA-A*01:01 (setting [24]); no less than 20 µM with HLA-A*31:01 [4] (setting [24]); 0.417 µM with HLA-B*08:01 (setting [24]); no less than 20 µM with HLA-B*27:05 (setting [24]). The Kd with HLA-A*03:01 [5] (setting [24]) is no less than 20 µM.

For LSVSSRCPI, the Kd in the assay with HLA-B*58:01 (setting [23]) turned out to be 0.139 µM; in the assay with HLA-B*57:01 [3] (setting [23]), 1.17 µM; with HLA-B*15:17 (setting [23]) it was 0.0041 µM.

In the case of KSISSIFGY, the Kd with HLA-B*58:01 (setting [21]) is 0.0015 µM; with HLA-B*57:01 [3] (setting [21]), 0.037 µM; with HLA-B*15:17 (setting [21]) it was no more than 0.001 µM; with HLA-A*68:01, 6.74 µM; in the assay with HLA-A*33:01, no less than 25.2 µM; with HLA-A*11:01 [14], 0.00327 µM. For the same sequence, the Kd in the assay with HLA-A*31:01 [15] is 0.0866 µM; with HLA-A*03:01 [16], 0.0474 µM.

With KQLGQVMLL, the values for the Kd with HLA-B*48:01 (source organism: dengue virus type 2) and with HLA-A*02:06 were 0.0062 µM and 0.00517 µM, respectively.
